Experimental data reported in PMC5750214.

What was measured:
[1] = biological target: mouse aortic AT1a receptor (mouse (endogenous in aorta)) (UniProt P29754); assay: radioligand binding; saturation: [125I]-Ang II on the aortic membrane fraction of WT control mice; non-specific binding subtracted
[2] = biological target: mouse aortic AT1a receptor (mouse (endogenous in aorta)) (UniProt P29754); assay: radioligand binding; saturation: [125I]-Ang II on the aortic membrane fraction of WT mice with HHcy (fed Hcy); non-specific binding subtracted

Chain of mouse aortic AT1a receptor (mouse (endogenous in aorta)) (P29754 whole entry): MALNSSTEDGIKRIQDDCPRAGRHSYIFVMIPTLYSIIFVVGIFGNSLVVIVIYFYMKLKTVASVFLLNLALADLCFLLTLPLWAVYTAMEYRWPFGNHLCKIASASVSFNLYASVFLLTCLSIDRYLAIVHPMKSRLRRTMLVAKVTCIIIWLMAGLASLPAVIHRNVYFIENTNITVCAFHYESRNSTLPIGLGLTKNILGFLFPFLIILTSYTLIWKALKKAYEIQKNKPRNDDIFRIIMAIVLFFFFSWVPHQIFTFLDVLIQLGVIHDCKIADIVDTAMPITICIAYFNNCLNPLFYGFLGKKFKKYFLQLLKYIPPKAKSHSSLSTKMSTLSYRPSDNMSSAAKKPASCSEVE

Kd [1]: 36.4 nM
Kd [2]: 43.2 nM
Substance: [125I]-Angiotensin II (peptide)
